From paper PMC5565208
Like-named read-outs stand apart in the source and are kept apart here.

Tests used:
[1] = tested on: BifR (Burkholderia thailandensis E264); experiment: EMSA
[2] = tested on: BifR (Burkholderia thailandensis E264); experiment: EMSA; remark: listed apart in the source
[3] = biological target: BifR (biofilm regulator), MarR homologue from Burkholderia thailandensis E264 (Burkholderia thailandensis E264); experiment: cross-linking
[4] = biological target: BifR (biofilm regulator), MarR homologue from Burkholderia thailandensis E264 (Burkholderia thailandensis E264); experiment: SEC
[5] = biological target: BifR (biofilm regulator), MarR homologue from Burkholderia thailandensis E264 (Burkholderia thailandensis E264); experiment: SEC; remark: listed apart in the source

stoichiometry N [3] | stoichiometry N [4] | stoichiometry N [5] | Substance | Kd [1] | Kd [2]
– | – | – | 355 bp ecsC-emrB operator DNA | 0.9 nM | 1.4 nM
2 | 2 | 4 | BifR (biofilm regulator), MarR homologue from Burkholderia thailandensis E264 (natural protein) | – | –
